Experiment [1] has as its target T1, yeast carboxypeptidase Y (CPD-Y), wild type (SEQ ID NO:32) (Saccharomyces cerevisiae, UniProt P00729).
T1 construct: purchased Carlbiotech, Copenhagen, Denmark
T1 sequence (P00729 112-532): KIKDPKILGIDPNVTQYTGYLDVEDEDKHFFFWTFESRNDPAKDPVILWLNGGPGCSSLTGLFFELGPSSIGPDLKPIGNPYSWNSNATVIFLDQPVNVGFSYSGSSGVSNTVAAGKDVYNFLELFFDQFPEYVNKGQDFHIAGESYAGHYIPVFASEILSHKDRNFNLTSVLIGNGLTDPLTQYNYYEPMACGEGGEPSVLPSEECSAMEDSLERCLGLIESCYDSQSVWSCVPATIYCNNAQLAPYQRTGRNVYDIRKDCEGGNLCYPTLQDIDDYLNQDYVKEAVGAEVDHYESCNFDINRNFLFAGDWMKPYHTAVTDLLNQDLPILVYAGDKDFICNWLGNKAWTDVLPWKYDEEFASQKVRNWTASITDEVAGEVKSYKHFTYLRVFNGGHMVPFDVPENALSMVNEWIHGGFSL
Kind of experiment: Aminolysis of ester/peptide substrates; KN(app) of nucleophile. The experiment is classed as biochemical. The conditions noted are these: Table VI; substance of the line is the substrate (leaving group varied), pH 7.5. As to the method: (§1) Aminolysis reactions were carried out in the following way. The nucleophile was dissolved in 50 mM Hepes, 5 mM EDTA and pH was adjusted to 7.5. Five (5) μl of substrate (8 mM FA-Ala-OBzl in methanol) was added to 190 μl nucleophile solution followed by 5 μl enzyme, resulting in a substrate concentration of 0.2 mM. For reactions carried out at pH 9.5, Hepes was replaced with Ches. During the reaction, 20 μl aliquots were removed from the reaction mixture and added to 50 μl 1% trifluoroacetic acid to quench the reaction. The reactant composition was determined by HPLC using a Waters HPLC equipped with a C-18 Waters Novapac 4μ reverse phase column and various gradients of acetonitrile in 0.1% trifluoroacetic acid. The separation was monitored at 302 nm allowing the direct quantification of the products from the integrated peak areas. The composition of the reaction mixture was determined at least twice during the reaction, the first time when 20-50% (preferably 35%) of the ester substrate had been consumed in the reaction and the second time when 50-90% (preferably 80%) of the substrate had been consumed. The products were collected and identified by amino acid analysis after acid hydrolysis using a Pharmacia Alpha Plus analyzer.
(§2) Further identification was obtained by co-chromatography of authentic standard compounds. The fraction of aminolysis (fa) was expressed as the ratio between the formed aminolysis product and the sum of all products being formed, i.e., unconsumed substrate was disregarded in the calculations. The KN(app), representing the nucleophile concentration at which fa is half the maximum value (a measure for the dissociation constant of the nucleophile), and famax (the highest possible fa obtained at saturation of the enzyme with nucleophile) were determined by fitting the values of fa obtained at a minimum of seven concentrations of nucleophile to a saturation. The value of fa obtained at the highest possible nucleophile concentration is designated fasat.
(§3) Aminolysis reactions were carried out in the following way. The nucleophile was dissolved in 50 mM HEPES, 5 mM EDTA and pH was adjusted to 7.5, 5 μl substrate (8 mM FA-Ala-OBzl or FA-Ala-Xaa-OH in methanol) was added to 190 μl nucleophile solution followed by 5 μl enzyme diluted in buffer to the appropriate concentration, resulting in a substrate concentration of 0.2 mM. During the reaction, 20 μl aliquots were removed from the reaction mixture and added to 50 μl 1% trifluoroacetic acid to quench the reaction. The reactant composition was determined by HPLC using a Waters HPLC equipped with a C-18 Waters Novapac 4μ reverse phase column and various gradients of acetonitrile in 0.1% trifluoroacetic acid. The separation was monitored at 302 nm allowing the direct quantification of the products from the integrated peak areas. The products were collected and identified by amino acid analysis after acid hydrolysis (Pharmacia Alpha Plus analyzer) and by co-chromatography of authentic standards. The fraction of aminolysis (fa) was expressed as the ratio between the formed aminolysis product and the sum of all products being formed, i.e. unconsumed substrate was disregarded in the calculations. The KN,app (a measure for the dissociation constant of the nucleophile) and famax (the highest possible fa obtained at saturation with nucleophile were determined by fitting the obtained fa values to the equation fa=famax /(1+KN,app /N).

Experiment [2] concerns the target T2, carboxypeptidase Y (CPD-Y) variant N51S (Asn51 replaced with serine) (Saccharomyces cerevisiae, UniProt P00729, N162S).
T2 construct: made in house; host or cells: S. cerevisiae W2579 (secreted)
T2 sequence (P00729 112-532 N162S): T1 sequence (P00729 112-532) with N51S
Kind of experiment: Aminolysis; KN(app) of nucleophile. The conditions noted are these: Table VI; substance of the line is the substrate (leaving group varied), pH 7.5. The experiment is classed as biochemical, yeast. How it is done: as §1, §2, §3

Experiment [3] concerns the target T3, carboxypeptidase Y (CPD-Y) variant E65A (Glu65 replaced by alanine) (Saccharomyces cerevisiae, UniProt P00729, E176A).
T3 construct: made in house; host or cells: S. cerevisiae W2579 (secreted)
Nature of the experiment: Aminolysis; KN(app) of nucleophile. The format is biochemical, yeast. Conditions: Table VI; substance of the line is the substrate (leaving group varied), pH 7.5. How it is done:
as §1, §2, §3

Experiment [4] deals with T4, carboxypeptidase Y (CPD-Y) variant N51Q (Asn51 replaced with glutamine) (Saccharomyces cerevisiae, UniProt P00729, N162Q).
T4 construct: made in house; host or cells: S. cerevisiae W2579 (secreted)
T4 sequence (P00729 112-532 N162Q): T1 sequence (P00729 112-532) with N51Q
Kind of experiment: Aminolysis; KN(app) of nucleophile. Conditions: Table VI; substance of the line is the substrate (leaving group varied), pH 7.5. The format is biochemical, yeast. As to the method:
as §1, §2, §3

The target of experiment [5] is T5, carboxypeptidase Y (CPD-Y) variant E145A (Glu145 replaced by alanine) (Saccharomyces cerevisiae, UniProt P00729, E256A).
T5 construct: made in house; host or cells: S. cerevisiae W2579 (secreted)
T5 sequence (P00729 112-532 E256A): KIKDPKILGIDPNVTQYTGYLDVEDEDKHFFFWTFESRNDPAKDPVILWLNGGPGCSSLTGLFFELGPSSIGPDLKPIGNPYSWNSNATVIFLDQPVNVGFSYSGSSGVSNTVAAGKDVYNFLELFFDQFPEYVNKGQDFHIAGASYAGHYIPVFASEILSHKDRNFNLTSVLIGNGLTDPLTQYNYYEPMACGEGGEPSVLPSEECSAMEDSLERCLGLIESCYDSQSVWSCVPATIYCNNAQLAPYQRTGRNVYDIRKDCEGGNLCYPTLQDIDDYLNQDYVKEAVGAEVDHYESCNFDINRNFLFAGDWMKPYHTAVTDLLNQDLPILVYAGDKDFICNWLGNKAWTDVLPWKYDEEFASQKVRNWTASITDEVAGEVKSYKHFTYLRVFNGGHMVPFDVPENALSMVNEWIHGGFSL
Kind of experiment: Aminolysis; KN(app) of nucleophile. The format is biochemical, yeast. Conditions: Table VI; substance of the line is the substrate (leaving group varied), pH 7.5. As to the method:
as §1, §2, §3

For experiment [6], the target named is T1, yeast carboxypeptidase Y (CPD-Y), wild type (SEQ ID NO:32). Kind of experiment: Hydrolysis of FA-Phe-Val-OH. The experiment is classed as biochemical.

Substitutions are numbered along the chain they refer to.

T3 sequence (P00729 112-532 E176A): as the sequence (P00729 112-532 E256A) above, with E65A, A145E counted along it

Regarding `C[C@H](NC(=O)[C@H](C)NC(=O)C=Cc1ccco1)C(=O)O` [FA--Ala--Ala--OH, FA-Ala-Ala-OH], the “Kn,app (H-Val-NH2 as nucleophile)” value in [1] is 1.8 ± 0.1 mM; in experiment [2] it was 1.9 ± 0.1 mM; in experiment [3], 5.2 ± 0.5 mM; in experiment [4], 3.1 ± 0.1 mM.
Consider `C[C@H](NC(=O)C=Cc1ccco1)C(=O)OCc1ccccc1` [FA--Ala--OBzl, FA-Ala-OBzl], for which the “Kn,app (H-Val-NH2 as nucleophile)” value in experiment [1] is listed as 1.7 ± 0.1 mM; in experiment [5], 3.4 ± 0.4 mM; in [2] it was 1.6 ± 0.1 mM; in [3], 4.2 ± 0.01 mM; in experiment [4], 3.1 ± 0.4 mM.
The matching figures for `CC(C)[C@H](NC(=O)[C@H](C)NC(=O)C=Cc1ccco1)C(=O)O` [FA--Ala--Val--OH, FA-Ala-Val-OH]: 1.5 ± 0.1 mM, 4.2 ± 0.2 mM, 1.8 ± 0.1 mM, 5.7 ± 0.3 mM and 2.4 ± 0.1 mM.
A word on the kcat: it is the number of substrate molecules converted per active site and unit of time at saturation. As to `CC(C)[C@H](NC(=O)[C@H](Cc1ccccc1)NC(=O)C=Cc1ccco1)C(=O)O` [FA-Phe-Val-OH], in experiment [6], the kcat worked out at 108.3 s⁻¹ and the “kcat /KM” value amounted to 2.33333e+06 M⁻¹ s⁻¹.
Regarding carboxypeptidase Y (enzyme), in the experiment with FA-Phe-Val-OH, the kcat/KM of hydrolysis came to 2.33e+06 M⁻¹ s⁻¹. Also, the kcat/Km of hydrolysis with CBZ-Lys-Leu-OH stood at 400 M⁻¹ s⁻¹; with CBZ-Glu-Leu-OH, 7330 M⁻¹ s⁻¹; with CBZ-Ser-Leu-OH, 200000 M⁻¹ s⁻¹; with CBZ-Ala-Leu-OH, 600000 M⁻¹ s⁻¹; in the experiment with CBZ-Phe-Leu-OH it was 6.33e+06 M⁻¹ s⁻¹. Besides, the famax of transpeptidation (nucleophile H-Gly-NH2) in the experiment with FA-Ala-Gln-OH is 0.93; in the experiment with FA-Ala-Lys-OH, 0.99. For the same molecule, the famax of transpeptidation (nucleophile H-Val-NH2) in the experiment with FA-Ala-Arg-OH came to 1; with FA-Ala-Ala-OH, 0.94; in the experiment with FA-Ala-Val-OH it was 0.22; with FA-Ala-Phe-OH it was 0.06; with FA-Ala-Leu-OH, 0.16. In addition, the estimated CPD-Y activity relative to wild type transformants (fold of wild type) with CBZ-Gly-Leu-OH, with CBZ-His-Leu-OH, with CBZ-Trp-Leu-OH and with CBZ-Pro-Leu-OH was 1 in each case.

Source of the values: patent US5945329A, “Customized proteases” (Carlsberg A/S, priority 1997, dated 1999).
